Data published in article PMC9546566.

Biological target: CRY1(Human)-3×FLAG (human) (UniProt Q16526)
Assay: co-IP

Chain of UniProt Q16526 (Q16526 whole entry): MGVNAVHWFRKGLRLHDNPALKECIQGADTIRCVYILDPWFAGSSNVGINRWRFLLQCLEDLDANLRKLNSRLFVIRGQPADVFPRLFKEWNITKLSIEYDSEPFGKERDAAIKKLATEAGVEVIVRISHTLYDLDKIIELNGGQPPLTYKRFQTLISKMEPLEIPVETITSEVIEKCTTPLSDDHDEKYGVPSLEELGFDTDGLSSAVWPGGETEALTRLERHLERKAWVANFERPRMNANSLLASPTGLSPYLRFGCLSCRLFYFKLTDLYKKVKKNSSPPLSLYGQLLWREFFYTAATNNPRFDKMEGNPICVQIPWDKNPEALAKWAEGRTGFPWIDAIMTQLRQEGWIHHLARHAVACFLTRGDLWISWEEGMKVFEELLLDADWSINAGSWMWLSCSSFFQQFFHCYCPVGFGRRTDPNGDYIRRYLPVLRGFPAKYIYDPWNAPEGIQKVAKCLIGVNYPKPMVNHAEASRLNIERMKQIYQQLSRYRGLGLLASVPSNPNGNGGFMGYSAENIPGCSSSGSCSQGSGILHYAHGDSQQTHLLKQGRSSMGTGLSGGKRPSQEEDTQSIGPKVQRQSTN

PER2(Loris)-3×HA (natural protein)
ability to bind with CRY in co-IP (quantity and unit not named): 35.2
